The values below come from PMC10638403, “A closed translocation channel in the substrate-free AAA+ ClpXP protease diminishes rogue degradation” (Nature Communications, 2023).

B2: full-length E. coli ClpX (enzyme)
chain: not shown
notes: ClpX, E. coli, full length, with a neutral K408E mutation; The methods tell two purifications for full-length ClpX (Ni-NTA, gel filtration and ion exchange; or ammonium sulfate, phenyl-Sepharose and mono-Q), so the His6 tag on this form is not certain; The N-terminal domains were not visible in the map; models typically hold residues 65-413; also called wild-type ClpX; ClpX6; source: E. coli …

Data set [1] deals with the molecule itself. Put plainly: cryo-EM structure; single-chain ClpX^∆N (3 µM pseudohexamer) and ClpP (1.5 µM tetradecamer) in 20 mM HEPES (pH 7.5), 100 mM KCl, 25 mM MgCl2, incubated with ATP (5 mM) for 15 min at room temperature; doubly capped and singly capped particles.
The data set “full-length E. coli ClpX” deals with B2. Put plainly: cryo-EM structure; ClpX6 (5.8 µM), ClpP14 (1.9 µM), λO-Arc (20 µM dimer), ATPγS (2.5 mM) in 25 mM HEPES (pH 7.5), 100 mM KCl, 25 mM MgCl2; ClpX and ClpP incubated with ATPγS for 5 min at room temperature before λO-Arc was added; the substrate-free class was refined. To be noted: both partners purified.
Data set [2] concerns the molecule itself. The data set is described as above.

B1: E. coli ClpP (enzyme)
chain: not shown
notes: ClpP peptidase, E. coli; models hold residues 2-193 of each subunit; also called ClpP14; double-ring ClpP tetradecamer; source: E. coli HMS174(DE3), pT7 plasmid, purified (Ni-NTA, size-exclusion chromatography); copies: 14
Broadly, the stoichiometry N is the number of molecules, sites or subunits per partner or assembly. Take B1: the “stoichiometry N” value in data set [1] was 14 subunits. Moreover, the binding result with full-length E. coli ClpX was “binds”.
Turning to B2, the “stoichiometry N” value in data set [2] worked out at 6 subunits.
